# According to the nanobody polyreactivity screen of Harvey et al. (2022):
# Assay: yeast display, Sf9 membrane polyspecificity reagent, FACS + sequencing; frameworks hold sequencing errors
# In short: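 Sorting gates, low and high (top ~1%), were placed on anti-HA fluorescence to track expression and on streptavidin fluorescence to track reagent binding. A clone's polyreactivity label is taken from the gate it came out of. The reagent was 10% biotinylated, detergent-solubilized Sf9 membrane, applied for 1 hour at 4 °C to galactose-induced yeast display cells.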
row,Sequence,polyreactivity (PSR sort gate)
1,QVQLVESGGGLVQAGGSLRLSCAASGFTFRANGMGWYRQAPGKERELVATITSGGTTNYADSVKGRFTISRDNAKNTVYFQMNSLKPEDTAVLYCAKRFGPAYFRLYDYWGQGTQVTVSS,low polyreactivity
2,QVQLVESGGGLVQAGGSLRLSCAASGLIFYRYTMGWYRQAPGKERELVAAITRSGSTYYADSVKGRFTISRDNAKNTVYLQMNSLKPEDTAVYYCAADVTLYYRGRRYYYWGQGTQVTVSS,high polyreactivity
3,QVQLVESGGGLVQAGGSLRLSGAASGFNLEPNAMGWYRQAPGKERELVATISFSGGGTYYADSVKGRFTISRDNAKNTVYLQMNSLKPEDTAVYYCAADWYYYVWWYDYWGQGTQVTVSS,high polyreactivity
4,QVQLVESGGGLVQAGGSLRLSCAASGNILTTYAMGWYRQAPGKERELVAAIRWSDGSTYYADSVKGRFTISRDNAKNTVYLQMYSLKPEDNAVYYCAADYHYPTWQGGYHYGYWGQGTQVTVSS,high polyreactivity
5,QVQLVESGGGLVQAGGSLRLSCAASGFTFSSNAMGWYRQAPGKERELVAAISSSGARTYYADSVKGRFTISRDNAKNTVYLQMNSLKPEDTAVYYCNARGLAGRKGYDYWGHGTQVTVSS,high polyreactivity
6,QVQLVESGGGLVQAGGSLRLSWAAAGFIFYYNAMGRYRQAPGKERELVAAIDESGGSTYYADSVKGRFTISRDNATNTVYLQLNSLKPEDSAVYYCDTDDTWSISYGWYWFTYEYWGQGTQVTVSS,low polyreactivity
7,QVQLVESGGGLVQAGGSLRIICAATGSIFYWNAMGWYRQSPGKEREFVASIRKSGGSTNYADSVKGRFTISRDNAKNTVYLQMTSQKPEDTAVYYCAAYSYYRGTFYDYWGQGTQVTVSS,low polyreactivity
8,QVQLVESGGGLVQAGGSLRFSCAASGSIFGTYAMGWYRQAPGKERELVAAITGNGGRTYYADSVKGRFTISRDNAKNTVYLQMNSLKPEDTAVYYCAKATSRRGFYYWGQGTQVTVSS,high polyreactivity
9,QVQLVESGGGLVQAGGSLRLSCAASGITFKYYVMGWYRQAPGKEREFVAAISWGGGSTYYADSVKGRFTISRDNAKNTVYLQMNSLKPEDTAVYYCAARKGYYTHVQIGYRQSMDYWGQGTQVTVSS,high polyreactivity
10,QVQLVESGGGLVQAGGSLRLSCAASGFTFRSNAMGWYRQAPGKVRELVAAISYSGDSTYYADSVKGRFTISRDNAMNTVYLQMNSLKPEDTAVYYCNAVGSGYRSWYDYWGQGTQVTVSS,high polyreactivity
11,QVQLVESGGGLVQAGGSLRLSCAASGFTFSSNAMGWYRQAPGKERELVAAISFNSTSTYYADSVKGRFTISRDNAKNTVYLQMNSLKPEDTAVYYCAADVPRVQSEPEYDYWGQGTQVTVSS,low polyreactivity
12,QVQLVESGGGLVQAGGSLRLSCAASGIIFYVNAMGWYRQAPGKERELVAVISRRGGSTNYADSVKGRFTISRDNAKNTVYLQMNSLKPEDTAVYYCAAGYRTAYRGSSYYYWGQGTQVTVSS,high polyreactivity
13,QVQLVESGGGLVQAGGSLRLSCAASGRIFDDNAKGCYRQPPGKERELLASLTVSTGSTYYADSVKGRFTISRDTAKNTVYLQMNSLKPEDTAVYYCAAPYITPYGTYVFSSDYWGQGTQVTVSS,low polyreactivity
14,QVHLVESGGGLVQAGGSLRLSCAASGSTFDVYAMGWYRQAPRKERELVAVINTSGTRTYYADSVKGRFTISRDNAKNSVYLLMNSLKPEDTAVSYCNAGGNLEMIYWGQGTQVTVSS,low polyreactivity
15,QVQLVESGGGLVQAGGSLRLSCAASGSIFSPNDMGWYRQAPGKERELVAAITTAGSTYYADSVKGRFTISRDTAKNTVYLQMNSLKPEDTAVYYCAATYISVTDYAYFPLWYGYWGEGTQVTVSS,low polyreactivity
16,QVQLVESGGGLVQAGGSLRLSCAASGFTFRRYAMGWYRQAPGKERELVASIASSTGGSTYADSVKGRFTISRDNAKNTVYLQMNSLKPEDTAVYSCAADWSRFYLGHRTGSGYEYWGQGTQVTVSS,low polyreactivity
17,QVQLVESGGGLVQAGGSLSLSCAASGRTFNNNAMGCYIPAPGKERELVAAITSGASTNYADSVKGRFTISRDNAKNTVYLQMNSLKPEDTAVYYCAKATYPHEYDYWGQGTQVTVSS,low polyreactivity
